The source of these data is patent US10766960 (dated 2020).

Changes are numbered by the printed parent chain. In names and notes the source's numbering stands. Where two headings read alike, the source gives them in different places.

What all share (assay): SPR
A general note: Surface plasmon resonance follows binding to a sensor surface in real time, without labels.

In assay [1] the target is T1, FcgRIIa H (human, UniProt P12318).
T1 chain: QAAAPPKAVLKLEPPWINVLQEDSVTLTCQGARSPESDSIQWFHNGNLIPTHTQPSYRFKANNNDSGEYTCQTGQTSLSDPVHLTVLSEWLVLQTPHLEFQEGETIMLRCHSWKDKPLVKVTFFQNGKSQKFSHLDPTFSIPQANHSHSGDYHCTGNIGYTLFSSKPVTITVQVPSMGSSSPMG

The target of assay [2] is T2, FcgRIa (human, UniProt P12314).
T2 chain: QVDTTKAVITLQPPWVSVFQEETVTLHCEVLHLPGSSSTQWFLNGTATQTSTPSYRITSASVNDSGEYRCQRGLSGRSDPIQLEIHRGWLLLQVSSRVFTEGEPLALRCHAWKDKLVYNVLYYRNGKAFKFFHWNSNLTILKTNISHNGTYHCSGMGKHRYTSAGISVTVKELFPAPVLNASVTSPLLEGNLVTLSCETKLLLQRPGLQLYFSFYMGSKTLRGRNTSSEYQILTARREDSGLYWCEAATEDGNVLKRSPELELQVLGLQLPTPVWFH

The target in assay [3] is T3, FcgRIIIa V (human, UniProt P08637).
T3 sequence (P08637 17-208 F176V): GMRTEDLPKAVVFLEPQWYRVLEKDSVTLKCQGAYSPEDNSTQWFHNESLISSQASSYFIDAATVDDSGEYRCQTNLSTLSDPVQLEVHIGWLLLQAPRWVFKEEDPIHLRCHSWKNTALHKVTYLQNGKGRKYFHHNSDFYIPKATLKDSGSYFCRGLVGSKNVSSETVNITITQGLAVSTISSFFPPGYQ
For assay [4], the target named is T1, FcgRIIa H.
For assay [5], the target named is T4, FcgRIIIa F (human, UniProt P08637).
T4 sequence (P08637 17-208): as the sequence (P08637 17-208 F176V) above, with V160F counted along it
The target of assay [6] is T4, FcgRIIIa F. The source holds these as a separate data set.
Assay [7] deals with T5, FcgRIIb (human, UniProt P31994).
T5 chain: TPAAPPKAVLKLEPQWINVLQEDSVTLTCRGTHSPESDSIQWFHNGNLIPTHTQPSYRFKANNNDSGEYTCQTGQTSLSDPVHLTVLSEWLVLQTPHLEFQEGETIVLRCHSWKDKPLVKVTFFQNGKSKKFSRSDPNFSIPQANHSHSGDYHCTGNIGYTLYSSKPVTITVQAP

Assay [8] deals with T3, FcgRIIIa V. The source holds these as a separate data set.
Assay [9] addresses T4, FcgRIIIa F. The source holds these as a separate data set.
Assay [10] concerns the target T6, FcgRIIa R (human, UniProt P12318).
T6 chain: T1 chain with H134R

Assay [11] has as its target T1, FcgRIIa H.
For assay [12], the target named is T2, FcgRIa.
Assay [13] concerns the target T6, FcgRIIa R.
Assay [14] addresses T2, FcgRIa.
Assay [15] deals with T5, FcgRIIb.
For assay [16], the target named is T5, FcgRIIb.
Assay [17] concerns the target T3, FcgRIIIa V. This is another data set of the same source.
Assay [18] concerns the target T6, FcgRIIa R.
Assay [19] addresses T2, FcgRIa.
The target of assay [20] is T6, FcgRIIa R.
Assay [21] has as its target T3, FcgRIIIa V. This is another data set of the same source.
In assay [22] the target is T4, FcgRIIIa F. The source holds these as a separate data set.
Assay [23] concerns the target T1, FcgRIIa H.
For assay [24], the target named is T5, FcgRIIb.
Assay [25] addresses T5, FcgRIIb.
In assay [26] the target is T6, FcgRIIa R.
Assay [27] addresses T2, FcgRIa.
In assay [28] the target is T3, FcgRIIIa V. This is another data set of the same source.
Assay [29] deals with T1, FcgRIIa H.
For assay [30], the target named is T4, FcgRIIIa F. The source holds these as a separate data set.

B1: H240-Kn120/H240-Hl068/L73-k0 (antibody)
chain 1: QDQLVQSGAEVKKPGASVKVSCKASGFNIKDTYIQWVRQAPGQGLEWMGRIDPLRKQTKYREKFEGRVTITADTSTNTAYMELSSLRSEDTAVYYCVRSGREFDYWGQGTLVTVSSASTKGPSVFPLAPSSKSTSGGTAALGCLVKDYFPEPVTVSWNSGALTSGVHTFPAVLQSSGLYSLSSVVTVPSSSLGTQTYICNVNHKPSNTKVDKKVEPKSCDKTHTCPPCPAPEYYWGPMVFLFPPKPKDTLMISRTPEVTCVVVDVSDEDPEVKFNWYVDGVEVHNAKTKPREEQYNATYRVVSVLTVLHQDWLNGKEYKCKVSNKDLPAPIEKTISKAKGQPREPQVCTLPPSRDELTKNQVSLWCLVKGFYPSDIAVEWESNGQPENNYKTTPPVLDSDGSFFLYSKLTVDKSRWQQGNVFSCSVMHEALHNHYTQKSLSLSP
chain 2: QDQLVQSGAEVKKPGASVKVSCKASGFNIKDTYIQWVRQAPGQGLEWMGRIDPLRKQTKYREKFEGRVTITADTSTNTAYMELSSLRSEDTAVYYCVRSGREFDYWGQGTLVTVSSASTKGPSVFPLAPSSKSTSGGTAALGCLVKDYFPEPVTVSWNSGALTSGVHTFPAVLQSSGLYSLSSVVTVPSSSLGTQTYICNVNHKPSNTKVDKKVEPKSCDKTHTCPPCPAPELLGGPSVFLFPPKPKDTLMISRTPEVTCVVVDVSHEEPEVKFNWYVDGVEVHNAKTKPREEQYNSTYRVVSVLTVLHQDWLNGKEYKCKVSNDALPKPIEETISKAKGQPREPQVYTLPPSRCELTKNQVSLSCAVKGFYPSDIAVEWESNGQPENNYKTTPPVLDSDGSFFLVSKLTVDKSRWQQGNVFSCSVMHEALHNHYTQKSLSLSP
chain 3: DIQMTQSPSSLSASVGDRVTITCRASQDIHKYIAWYQQKPGQAPRLLIQYTSTLQPGVPSRFSGSGSGTDYTFTISSLQPEDIATYYCLQYEQLRTFGGGTKVEIKRTVAAPSVFIFPPSDEQLKSGTASVVCLLNNFYPREAKVQWKVDNALQSGNSQESVTEQDSKDSTYSLSSTLTLSKADYEKHKVYACEVTHQGLSSPVTKSFNRGEC
For orientation: Kd means a measure of binding affinity in units of concentration. For the molecule B1, the Kd in assay [1] amounted to 41 nM; in assay [2], 0.16 nM; in [3] it was 0.33 nM; in assay [4] it was 59 nM; in assay [5], 2.4 nM; in assay [6], 2.4 nM. For the same molecule, the Kd in assay [7] was found to be 150 nM; in assay [8], 0.66 nM; in [9] it was 2.2 nM; in [10] it was 20 nM; in assay [11] it was 44 nM; in assay [12] it was 0.37 nM. The Kd was determined as 17 nM in assay [13]; 0.11 nM in assay [14]; 150 nM in assay [15]; 150 nM in assay [16]; 0.36 nM in assay [17]; 23 nM in assay [18].

B2: H240-Kn229/H240-Hl068/L73-k0 (antibody)
chain 1: B1 chain 1 with M238I
chain 2: B1 chain 2
chain 3: B1 chain 3
Regarding B2, the Kd in [19] is 0.13 nM; in [20], 16 nM; in assay [21], 0.77 nM; in assay [22], 2.1 nM; in assay [23], 39 nM; in [24] it was 200 nM.

B3: H240-A5E/H240-B3E/L73-k0 (antibody)
chain 1: not shown
chain 2: not shown
chain 3: B1 chain 3
As for B3, the Kd in [25] is 4300 nM; in [26], 940 nM; in assay [27], 0.61 nM; in assay [28], 330 nM; in [29], 910 nM; in assay [30], 1600 nM.

B4: H240-Kn037/H240-Hl036/L73-k0 (antibody)
chain 1: B1 chain 1 with Y233L, Y234L, W235A, M238D, D267H, A297S, D326A, I331E
chain 2: B1 chain 2 with G235A, S238D, E269D, D325K, K329A, I331E, E333K
chain 3: B1 chain 3
As for B4, the Kd in assay [4] amounted to 46 nM; in assay [6] it was 21 nM; in assay [8] it was 6.8 nM; in assay [12], 0.098 nM; in [13] it was 29 nM; in assay [15], 380 nM.

B5: H240-Kn225/H240-Hl076/L73-k0 (antibody)
chain 1: B1 chain 1 with Y234Q, M238I, D269E, D326A
chain 2: B1 chain 2 with K329M
chain 3: B1 chain 3
Turning to B5, the Kd worked out at 0.036 nM in [19]; 490 nM in assay [20]; 0.19 nM in assay [21]; 1.1 nM in assay [22]; 170 nM in assay [23]; 5200 nM in [24].
